Results as given in paper PMC4871718 (Nature chemical biology, 2016).

How the values were obtained:
[1] = molecular target: T1, CIB1-CreC (UniProt Q8GY61)
T1 sequence (Q8GY61 whole entry, looked up): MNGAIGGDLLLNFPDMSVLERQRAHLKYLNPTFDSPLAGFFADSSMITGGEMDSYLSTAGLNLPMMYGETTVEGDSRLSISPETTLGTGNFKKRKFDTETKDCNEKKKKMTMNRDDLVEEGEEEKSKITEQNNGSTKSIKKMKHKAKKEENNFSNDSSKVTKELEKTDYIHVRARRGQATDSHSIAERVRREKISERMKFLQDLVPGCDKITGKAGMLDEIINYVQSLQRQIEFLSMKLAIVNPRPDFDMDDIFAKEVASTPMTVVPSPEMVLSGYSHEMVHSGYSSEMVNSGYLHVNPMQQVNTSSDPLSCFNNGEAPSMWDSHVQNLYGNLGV

[2] = molecular target: LexABD-CRY2(535) (Arabidopsis thaliana, UniProt Q96524 1-535); assay: two-hybrid

In the case of “CRY2(L348F)-CreN (from UniProt Q96524 1-612; P06956 1-104)”, the Cre recombination with extended 24 hour illumination [1] is reported as over 50%.

B1: VP16-CIB1 (natural protein, UniProt Q8GY61 1-335, looked up)
chain: T1 sequence (Q8GY61 whole entry, looked up)
B1 was tested, and the “fold reduction in dark activity against LexABD-CRY2PHR” value [2] was 26 fold.
